This is an account of results in patent publication JP2000166574A.

For the experiment, the target named is 抗Fasモノクローナル抗体HFE7A (from mouse-mouse hybridoma HFE7A, FERM BP-5828). Kind of experiment: peptide (200 μg) preincubated with HFE7A (0.25 μg), then flow cytometry on WR19L12a cells. (A flow cytometer gives signals particle by particle.)

Regarding KCRCKPNFFC [P110], the inhibition of binding of HFE7A to WR19L12a cells was found to be 60%.
Consider EINCTRTQNT [P100], for which the inhibition of binding of HFE7A to WR19L12a cells was determined as 50%.
